Measured values taken from patent US20140256621A1 (published 2014).
Where a chain is given by its changes, count along the chain named.

B1: PEP07986-neutral linker-A500 (Compound 2) (other)
chain: MGSLAEAKEAANAELDSYGVSDFYKRLIDKAKTVEGVEALKDAILAALPTGGGGSGGGSGGGSGGGSASVPIQKVQDDTKTLIKTIVTRINDISHTQSVSSKQKVTGLEFIPGLHPILTLSKMDQTLAVYQQILTSMPSRNVIQISNDLENLRDLLHVLAFSKSCHLPQASGLETLESLGGVLEASGYSTEVVALSRLQGSLQDMLQQLDLSPGC
notes: also called Cmpd 2; PEP07986-Neutral-A500
B2: Cmpd 70 (other)
chain: MGSLAEAKVLANRELDKYGVSDFYKRLIDKAKTVEGVEALKDAILAALPTGGEGGEGGEGGEGGEGGEASVPIQKVQDDTKTLIKTIVTRINDISHTQSVSSKQKVTGLEFIPGLHPILTLSKMDQTLAVYQQILTSMPSRNVIQISNDLENLRDLLHVLAFSKSCHLPQASGLETLESLGGVLEASGYSTEVVALSRLQGSLQDMLQQLDLSPGC
B3: Cmpd 63 (printed with SEQ ID NO: 659 in Table X4) (other)
chain: B1 chain with H166S, G181E, M205I, G214E
B4: Cmpd 64 (other)
chain: MLAEAKEAANAELDSYGVSDFYKRLIDKAKTVEGVEALKDAILAALPTGGGGSGGGSGGGSGGGSASPIQRVQDDTKTLIKTIITRINDISPPQGVSSRPRVAGLDFIPRVQSVRTLSGMDQILATYQQILTSLQSRNVIQISNDLENLRDLLHVLAFSKSCPVPRARGSDTIKGLGNVLRASVHSTEVVALSRLKAALQDMLRQLDRNPGC
B5: Cmpd 9 (other)
chain: MGSLAEAKEAANAELDSYGVSDFYKRLIDKAKTVEGVEALKDAILAALPTGGGGSGGGSGGGSGGGSASPIQRVQDDTKTLIKTIITRINDISPPQGVSSRPRVAGLDFIPRVQSVRTLSGMDQILATYQQILTSLQSRNVIQISNDLENLRDLLHVLAFSKSCPVPRARGSDTIKGLGNVLRASVHSTEVVALSRLKAALQDMLRQLDRNPGC
B6: Cmpd 71 (other)
chain: MLAEAKEAANAELDSYGVSDFYKRLIDKAKTVEGVEALKDAILAALPTGGGGSGGGSGGGSGGGSASPIQRVQDDTKTLIKTIITRINDISHTQSVSSKQKVTGLDFIPGLHPILTLSGMDQILATYQQILTSLQSRNVIQISNDLENLRDLLHVLAFSKSCPVPRARGSDTIKGLGNVLRASVHSTEVVALSRLKAALQDMLRQLDRNPGC
B7: PEP07986-negative linker-A500 (Compound 12) (other)
chain: B2 chain with V9E, L10A, R13A, K17S
notes: also called Cmpd 12; PEP07986-Negative-A500
B8: Cmpd 1 (other)
chain: MGSLAEAKEAANAELDSYGVSDFYKRLIDKAKTVEGVEALKDAILAALPTGGGGASVPIQKVQDDTKTLIKTIVTRINDISHTQSVSSKQKVTGLEFIPGLHPILTLSKMDQTLAVYQQILTSMPSRNVIQISNDLENLRDLLHVLAFSKSCHLPQASGLETLESLGGVLEASGYSTEVVALSRLQGSLQDMLQQLDLSPGC
B9: Cmpd 68 (other)
chain: MLAEAKEAANAELDSYGVSDFYKRLIDKAKTVEGVEALKDAILAALPTGGGGSGGGSGGGSGGGSASVPIQKVQDDTKTLIKTIVTRINDISHTQSVSSKQKVTGLEFIPGLHPILTLSKMDQTLAVYQQILTSMPSRNVIQISNDLENLRDLLHVLAFSKSCHLPQASGLETLESLGGVLEASGYSTEVVALSRLQGSLQDMLQQLDLSPGC
B10: Cmpd 48 (other)
chain: B1 chain with A13R, S17A
B11: Cmpd 41 (other)
chain: B1 chain with E6Q, A13R
B12: Cmpd 55 (other)
chain: B1 chain with E9V, A10L, A13R, S17K
B13: Cmpd 69 (other)
chain: B2 chain with D29E, D42E

What was measured:
[1] = target: T1, chimeric Hu-Leptin/Mu-EPO receptor (human; mouse, UniProt P48357 22-839; P14753 250-507); assay: cell-based or functional assay
T1 sequence (looked up): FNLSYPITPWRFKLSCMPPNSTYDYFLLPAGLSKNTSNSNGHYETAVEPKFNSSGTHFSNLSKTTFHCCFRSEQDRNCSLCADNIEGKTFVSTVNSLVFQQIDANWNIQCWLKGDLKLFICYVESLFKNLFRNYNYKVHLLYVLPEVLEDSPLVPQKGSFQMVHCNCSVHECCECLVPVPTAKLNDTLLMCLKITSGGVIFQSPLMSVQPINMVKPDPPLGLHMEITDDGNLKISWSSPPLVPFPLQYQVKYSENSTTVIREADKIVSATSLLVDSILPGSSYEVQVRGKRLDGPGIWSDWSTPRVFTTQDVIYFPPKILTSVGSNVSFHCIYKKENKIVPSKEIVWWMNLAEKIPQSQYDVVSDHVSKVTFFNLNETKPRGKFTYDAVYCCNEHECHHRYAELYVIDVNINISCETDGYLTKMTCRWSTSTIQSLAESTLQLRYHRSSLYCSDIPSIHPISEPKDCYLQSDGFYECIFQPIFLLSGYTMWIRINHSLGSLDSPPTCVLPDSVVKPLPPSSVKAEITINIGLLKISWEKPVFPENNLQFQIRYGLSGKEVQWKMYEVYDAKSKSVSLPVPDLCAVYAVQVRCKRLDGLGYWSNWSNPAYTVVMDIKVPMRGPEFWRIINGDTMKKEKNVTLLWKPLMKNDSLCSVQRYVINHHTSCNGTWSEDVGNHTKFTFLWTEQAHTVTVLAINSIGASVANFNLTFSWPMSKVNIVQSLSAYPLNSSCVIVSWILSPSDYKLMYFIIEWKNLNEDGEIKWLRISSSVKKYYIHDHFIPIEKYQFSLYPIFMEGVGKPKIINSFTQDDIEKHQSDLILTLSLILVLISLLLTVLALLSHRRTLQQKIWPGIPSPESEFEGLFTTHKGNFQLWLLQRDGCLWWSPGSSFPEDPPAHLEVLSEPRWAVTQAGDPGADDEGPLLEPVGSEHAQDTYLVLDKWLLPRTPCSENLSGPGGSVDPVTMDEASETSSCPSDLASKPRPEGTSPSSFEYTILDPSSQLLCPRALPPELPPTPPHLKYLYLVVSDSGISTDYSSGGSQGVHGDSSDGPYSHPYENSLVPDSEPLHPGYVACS

[2] = target: T2, Dog SA (dog, UniProt P49822 25-608); assay: SPR (BioRad ProteOn XPR36), albumin amine-coupled on GLC chip, polypeptide injected from 5 nM in 3-fold dilutions, 25 C; relative KD
T2 construct: also called dog serum albumin
T2 sequence (P49822 25-608 limits assumed): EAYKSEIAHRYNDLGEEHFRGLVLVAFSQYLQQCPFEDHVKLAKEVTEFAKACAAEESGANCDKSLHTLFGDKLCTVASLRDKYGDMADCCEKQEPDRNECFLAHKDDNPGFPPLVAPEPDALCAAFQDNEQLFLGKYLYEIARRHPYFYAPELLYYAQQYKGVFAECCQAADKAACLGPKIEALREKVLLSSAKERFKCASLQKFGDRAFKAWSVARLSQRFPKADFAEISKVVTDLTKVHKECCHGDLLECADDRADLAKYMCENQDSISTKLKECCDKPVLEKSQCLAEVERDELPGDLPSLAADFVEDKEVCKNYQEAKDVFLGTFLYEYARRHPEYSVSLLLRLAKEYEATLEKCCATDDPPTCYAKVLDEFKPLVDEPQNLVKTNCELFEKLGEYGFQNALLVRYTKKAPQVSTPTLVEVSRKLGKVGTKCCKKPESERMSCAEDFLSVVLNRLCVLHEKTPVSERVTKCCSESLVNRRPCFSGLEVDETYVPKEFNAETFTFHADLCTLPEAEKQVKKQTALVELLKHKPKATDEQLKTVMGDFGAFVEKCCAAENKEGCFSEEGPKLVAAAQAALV
Experimental: (§1) All studies were conducted on a BioRad ProteOn XPR36 system using a GLC sensor chip at 25 degrees C. For amine coupling the GLC chip was activated for 5 minutes using a 1:1 mixture of sulfo-NHS/EDC diluted 30-fold from the initial stock in water as shown below. Each albumin sample was diluted to 25 ug/ml in 10 mM Na Acetate pH 5.0 and injected for 5 minutes over separate sensor surfaces. Each surface was then blocked with 1 M ethanolamine pH 8.5. Each albumin was coupled at a density of 2000-5000 in resonance units.
(§2) The binding of an engineered polypeptide was tested using 5 nM as the highest concentration in a three-fold dilution series. The running buffer contained 10 mM HEPES pH 7.4, 150 mM NaCl, 3 mM EDTA and 0.005% tween-20. All samples were tested using a 3-fold dilution series. Each concentration series was tested in duplicate. The dissociation phase for the highest concentration […] was monitored for 3 hours.

[3] = target: T3, Rat SA (rat, UniProt P02770 25-608); assay: as above
T3 construct: also called rat serum albumin
T3 sequence (P02770 25-608 limits assumed): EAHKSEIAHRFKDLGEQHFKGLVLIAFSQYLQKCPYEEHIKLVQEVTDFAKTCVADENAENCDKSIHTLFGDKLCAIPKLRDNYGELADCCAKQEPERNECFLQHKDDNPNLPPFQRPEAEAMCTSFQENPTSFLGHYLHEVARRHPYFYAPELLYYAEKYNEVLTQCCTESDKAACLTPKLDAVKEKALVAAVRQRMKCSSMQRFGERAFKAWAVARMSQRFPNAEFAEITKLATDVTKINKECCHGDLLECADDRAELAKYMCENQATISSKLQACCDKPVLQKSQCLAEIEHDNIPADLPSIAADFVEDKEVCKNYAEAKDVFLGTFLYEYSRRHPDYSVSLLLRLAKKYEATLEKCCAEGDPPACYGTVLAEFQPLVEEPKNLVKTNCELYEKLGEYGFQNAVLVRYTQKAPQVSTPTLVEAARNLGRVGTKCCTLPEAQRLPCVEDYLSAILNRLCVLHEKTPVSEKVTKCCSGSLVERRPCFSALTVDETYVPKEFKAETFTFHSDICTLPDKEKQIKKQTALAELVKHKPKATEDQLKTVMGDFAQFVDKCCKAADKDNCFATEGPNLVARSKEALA
Experimental: as §1, §2

[4] = target: T4, Mouse SA (mouse, UniProt P07724 25-608); assay: as above
T4 construct: also called mouse serum albumin
Experimental: as §1, §2

[5] = target: T5, human serum albumin (human, UniProt P02768 25-609); assay: as above
T5 construct: also called HSA; Albucult (Novozyme)
T5 sequence (P02768 25-609 limits assumed): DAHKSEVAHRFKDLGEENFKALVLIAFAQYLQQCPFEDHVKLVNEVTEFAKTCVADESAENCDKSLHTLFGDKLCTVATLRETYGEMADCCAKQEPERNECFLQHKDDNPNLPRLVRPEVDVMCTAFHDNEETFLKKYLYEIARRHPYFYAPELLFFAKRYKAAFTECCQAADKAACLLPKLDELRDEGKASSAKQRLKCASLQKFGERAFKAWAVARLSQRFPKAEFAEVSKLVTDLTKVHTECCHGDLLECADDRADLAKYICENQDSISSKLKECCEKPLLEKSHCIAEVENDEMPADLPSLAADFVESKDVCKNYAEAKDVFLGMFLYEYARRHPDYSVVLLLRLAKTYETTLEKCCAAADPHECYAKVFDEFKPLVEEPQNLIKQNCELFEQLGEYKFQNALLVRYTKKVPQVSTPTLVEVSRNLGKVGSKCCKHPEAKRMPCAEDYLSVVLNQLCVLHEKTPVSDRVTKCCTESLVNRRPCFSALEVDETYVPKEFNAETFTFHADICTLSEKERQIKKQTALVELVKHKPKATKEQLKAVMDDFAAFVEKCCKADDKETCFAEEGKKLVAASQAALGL
Experimental: as §1, §2

[6] = target: T6, Monkey SA (monkey); assay: as above
T6 construct: also called monkey serum albumin
T6 sequence (A2V9Z4 25-608): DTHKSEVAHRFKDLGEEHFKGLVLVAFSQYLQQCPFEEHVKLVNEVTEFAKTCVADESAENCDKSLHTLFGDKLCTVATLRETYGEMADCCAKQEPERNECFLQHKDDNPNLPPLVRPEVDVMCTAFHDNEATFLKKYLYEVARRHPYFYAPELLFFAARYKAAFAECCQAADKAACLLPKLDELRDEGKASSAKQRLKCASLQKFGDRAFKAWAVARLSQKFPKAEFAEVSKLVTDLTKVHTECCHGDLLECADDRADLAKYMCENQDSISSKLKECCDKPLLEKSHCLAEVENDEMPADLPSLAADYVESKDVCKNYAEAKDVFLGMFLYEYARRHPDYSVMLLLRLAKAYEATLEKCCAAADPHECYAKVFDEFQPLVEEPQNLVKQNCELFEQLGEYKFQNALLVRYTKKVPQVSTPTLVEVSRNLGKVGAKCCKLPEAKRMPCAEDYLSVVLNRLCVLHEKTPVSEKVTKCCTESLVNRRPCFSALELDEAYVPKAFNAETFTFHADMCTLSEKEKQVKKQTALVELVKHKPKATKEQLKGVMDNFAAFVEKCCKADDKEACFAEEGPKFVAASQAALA
Experimental: as §1, §2

| Binder | EC50 nM (Obeca STAT5 assay) [1] [nM] | further results |
| --- | --- | --- |
| B1 | 0.725 | Kd [2]: 1.31 nM; Kd [3]: 0.023 nM; Kd [4]: 1.66 nM; Kd [5]: 0.152 nM; Kd [6]: 0.405 nM |
| B2 | 0.941 |  |
| B3 | 0.785 |  |
| B4 | 0.634 |  |
| B5 | 0.433 |  |
| B6 | 1.26 |  |
| B7 | 0.947 | Kd [2]: 1.81 nM; Kd [3]: 0.01 nM; Kd [4]: 1.94 nM; Kd [5]: 0.27 nM; Kd [6]: 0.4 nM |
| B8 | 0.908 |  |
| B9 | 0.71 |  |
| B10 | 0.553 |  |
| B11 | 0.506 |  |
| B12 | 0.639 |  |
| B13 | 0.832 |  |
